Assay results published in publication PMC8902225.

Assays:
[1] = target: equine follicle-stimulating hormone receptor N191I (equine) (UniProt P47799)
[2] = target: equine follicle-stimulating hormone receptor R633H (equine) (UniProt P47799)
[3] = target: wild-type equine follicle-stimulating hormone receptor (equine) (UniProt P47799)
[4] = target: equine follicle-stimulating hormone receptor D566G (equine) (UniProt P47799)
[5] = target: wild-type equine follicle-stimulating hormone receptor (equine) (UniProt P47799); remark: listed apart in the source
[6] = target: equine follicle-stimulating hormone receptor A306T (equine) (UniProt P47799)
equine follicle-stimulating hormone receptor A306T (equine), sequence (P47799 18-694 A306T): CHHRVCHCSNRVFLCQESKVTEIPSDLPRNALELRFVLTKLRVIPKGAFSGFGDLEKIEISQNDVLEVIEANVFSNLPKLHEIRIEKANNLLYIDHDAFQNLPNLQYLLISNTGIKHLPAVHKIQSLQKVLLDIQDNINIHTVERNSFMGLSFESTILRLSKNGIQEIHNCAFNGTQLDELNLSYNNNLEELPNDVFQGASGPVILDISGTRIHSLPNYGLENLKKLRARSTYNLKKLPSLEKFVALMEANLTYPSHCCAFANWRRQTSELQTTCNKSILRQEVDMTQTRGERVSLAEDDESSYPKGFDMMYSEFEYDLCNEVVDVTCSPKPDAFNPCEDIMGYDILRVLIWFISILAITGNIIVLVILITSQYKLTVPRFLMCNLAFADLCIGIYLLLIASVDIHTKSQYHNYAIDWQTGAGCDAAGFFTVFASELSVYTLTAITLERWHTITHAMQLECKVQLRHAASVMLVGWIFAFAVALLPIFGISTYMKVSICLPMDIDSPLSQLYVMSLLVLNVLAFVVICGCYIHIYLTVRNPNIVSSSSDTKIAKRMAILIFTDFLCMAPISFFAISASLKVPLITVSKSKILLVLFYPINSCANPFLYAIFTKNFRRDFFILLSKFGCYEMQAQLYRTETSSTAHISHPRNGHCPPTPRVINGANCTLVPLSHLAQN

Human FSH (follicle-stimulating hormone), sequence (P01215 25-116): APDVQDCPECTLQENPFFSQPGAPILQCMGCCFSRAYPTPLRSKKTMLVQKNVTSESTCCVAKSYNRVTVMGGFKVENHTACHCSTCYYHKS
Human FSH (follicle-stimulating hormone), sequence (P01225 19-129): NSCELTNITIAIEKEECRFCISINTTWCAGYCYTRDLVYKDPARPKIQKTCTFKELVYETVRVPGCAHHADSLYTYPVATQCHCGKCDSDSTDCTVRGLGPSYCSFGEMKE
wild-type equine follicle-stimulating hormone receptor (equine), sequence (P47799 18-694): as the sequence (P47799 18-694 A306T) above, with T289A counted along it
equine follicle-stimulating hormone receptor N191I (equine), sequence (P47799 18-694 N191I): as the sequence (P47799 18-694 A306T) above, with N174I, T289A counted along it
equine follicle-stimulating hormone receptor R633H (equine), sequence (P47799 18-694 R633H): as the sequence (P47799 18-694 A306T) above, with T289A, R616H counted along it
equine follicle-stimulating hormone receptor D566G (equine), sequence (P47799 18-694 D566G): as the sequence (P47799 18-694 A306T) above, with T289A, D549G counted along it

EC50 of FSH-stimulated cAMP accumulation (HTRF) in transfected PathHunter EA-parental CHO-K1 cells [1]: 3.91 µg/mL | EC50 of FSH-stimulated cAMP accumulation (HTRF) in transfected PathHunter EA-parental CHO-K1 cells [2]: 1.16 µg/mL | EC50 of FSH-stimulated cAMP accumulation (HTRF) in transfected PathHunter EA-parental CHO-K1 cells (series with the inactivating mutants) [3]: 0.718 µg/mL | EC50 of FSH-stimulated cAMP accumulation (HTRF) in transfected PathHunter EA-parental CHO-K1 cells [4]: 0.648 µg/mL | EC50 of FSH-stimulated cAMP accumulation (HTRF) in transfected PathHunter EA-parental CHO-K1 cells [5]: 0.765 µg/mL | EC50 of FSH-stimulated cAMP accumulation (HTRF) in transfected PathHunter EA-parental CHO-K1 cells [6]: 0.751 µg/mL
Substance: Human FSH (follicle-stimulating hormone) (from UniProt P01215 25-116; P01225 19-129) (ligand)
